Laboratory results: US20210179686A1, “CELL SORTING SYSTEMS AND METHODS OF USE” (MEMORIAL SLOAN-KETTERING CANCER CENTER, priority 2018, published 2021)

System: soluble CD28-Fc
Assay: binding of soluble CD28-Fc by CD80 functionalized leucine zipper T cells
Conditions: FIG. 21B
Description: CD80 (B7-1) molecule functionalized to present blocked capture leucine zipper, permitting magnetic sorting with FLAG-RR12EE345L leucine zipper. T cells were transduced with vectors encoding (a) FLAG-RR12EE345L iCaspase9 CD19-myc-CAR and (b) RR12EE345L linker EE12RR345L CD80 CD20-streptag-CAR. Next, cells were magnetically sorted with anti-FLAG magnetic beads.

B1: RR12EE345L linker EE12RR345L CD80: CD80 (B7-1) functionalized to present blocked capture leucine zipper, SEQ ID NO: 142 (protein)
chain: METDTLLLWVLLLWVPGSTGLEIRAAFLRQRNTALRTEVAELEQEVQRLENEVSQYETRYGPLGGGKGGGGSGGGGSGGGGSGGGSLEIEAAFLERENTALETRVAELRQRVQRLRNRVSQYRTRYGPLGGGKEFTGSTSGSGKPGSGEGSTKGVDEQLSKSVKDKVLLPCRYNSPHEDESEDRIYWQKHDKVVLSVIAGKLKVWPEYKNRTLYDNTTYSLIILGLVLSDRGTYSCVVQKKERGTYEVKHLALVKLSIKADFSTPNITESGNPSADTKRITCFASGGFPKPRFSWLENGRELPGINTTISQDPESELYTISSQLDFNTTRNHTIKCLIKYGDAHVSEDFTWEKPPEDPPDSKNTLVLFGAGFGAVITVVVIVVIIKCFCKHRSCFRRNEASRETNNSLTFGPEEALAEQTVFL
binding to soluble CD28-Fc: bound to soluble CD28-Fc
